Assay results taken from article PMC4620443, “Screening and Identifying a Novel ssDNA Aptamer against Alpha-fetoprotein Using CE-SELEX”.

Molecular target: T1, alpha-fetoprotein (AFP) (UniProt P02771 19-609)
T1 sequence: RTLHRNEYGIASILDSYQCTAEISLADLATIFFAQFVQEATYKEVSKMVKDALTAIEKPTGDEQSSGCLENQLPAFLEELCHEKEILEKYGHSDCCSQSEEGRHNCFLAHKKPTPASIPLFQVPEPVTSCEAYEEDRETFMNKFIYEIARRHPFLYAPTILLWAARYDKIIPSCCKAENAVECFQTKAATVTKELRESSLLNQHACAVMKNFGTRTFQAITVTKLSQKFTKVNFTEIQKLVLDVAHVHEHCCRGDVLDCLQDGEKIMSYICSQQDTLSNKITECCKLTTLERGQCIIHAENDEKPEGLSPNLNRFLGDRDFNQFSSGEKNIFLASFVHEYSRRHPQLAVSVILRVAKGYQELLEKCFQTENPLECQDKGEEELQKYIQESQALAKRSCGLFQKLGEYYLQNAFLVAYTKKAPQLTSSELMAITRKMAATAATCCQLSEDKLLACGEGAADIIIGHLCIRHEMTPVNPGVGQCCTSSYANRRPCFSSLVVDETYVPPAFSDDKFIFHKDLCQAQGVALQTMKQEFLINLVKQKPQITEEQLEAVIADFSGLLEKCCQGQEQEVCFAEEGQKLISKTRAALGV
Assay: capillary electrophoresis (CE-LIF); CE-LIF: 10 uM FAM-aptamer with 100 ug/ml AFP, 25 C, PVA-coated capillary, -8 kV with 0.5 psi; CE buffer composition and pH not given in the material
Details: protein: commercial; label: 5' 6-FAM

B1: AP250 (ssDNA)
DNA: GTGACGCTCCTAACGCTGACACAGTTGCTAAGAGCCGCCTCTGAACCTATCGAGGCCTGTCCGTCCGAACCAATC
- binding result: binds

B2: AP273 (ssDNA)
DNA: GTGACGCTCCTAACGCTGACTCAGGTGCAGTTCTCGACTCGGTCTTGATGTGGGTCCTGTCCGTCCGAACCAATC
- Kd: 500 nM

B3: AP206 (ssDNA)
DNA: GTGACGCTCCTAACGCTGACTTTTAATTCTTGTTTATTGGTATATCCGCCTCTGACCTGTCCGTCCGAACCAATC
- binding result: binds

B4: AP244 (ssDNA)
DNA: GTGACGCTCCTAACGCTGACGGCCCGTCAATCCCCGCGTATCCATTGGTCCTTTACCTGTCCGTCCGAACCAATC
- Kd: 4800 nM

B5: AP211 (ssDNA)
DNA: GTGACGCTCCTAACGCTGACTTTTTGGGAATGCGTATGTATGCTCGCCACGTACGCCTGTCCGTCCGAACCAATC
- binding result: no binding
